The values that follow come from paper PMC5290461.

The target in this test is GST-β1A-integrin tails (UniProt P05556). The test is described as follows: pull-down; different concentrations of purified His-tagged talin head incubated with glutathione agarose beads preloaded with GST-β1A-integrin tails or GST; lysis buffer A (50 mM Tris-HCl pH 7.4, 1% NP-40, 150 mM NaCl, 1 mM EDTA, protease inhibitors) with 0.5 mg/ml bovine gelatin; bound protein on SDS-PAGE, Coomassie blue, quantified against standards on the same gel; Kd fitted with SigmaPlot.
Chain of UniProt P05556 (P05556 21-798): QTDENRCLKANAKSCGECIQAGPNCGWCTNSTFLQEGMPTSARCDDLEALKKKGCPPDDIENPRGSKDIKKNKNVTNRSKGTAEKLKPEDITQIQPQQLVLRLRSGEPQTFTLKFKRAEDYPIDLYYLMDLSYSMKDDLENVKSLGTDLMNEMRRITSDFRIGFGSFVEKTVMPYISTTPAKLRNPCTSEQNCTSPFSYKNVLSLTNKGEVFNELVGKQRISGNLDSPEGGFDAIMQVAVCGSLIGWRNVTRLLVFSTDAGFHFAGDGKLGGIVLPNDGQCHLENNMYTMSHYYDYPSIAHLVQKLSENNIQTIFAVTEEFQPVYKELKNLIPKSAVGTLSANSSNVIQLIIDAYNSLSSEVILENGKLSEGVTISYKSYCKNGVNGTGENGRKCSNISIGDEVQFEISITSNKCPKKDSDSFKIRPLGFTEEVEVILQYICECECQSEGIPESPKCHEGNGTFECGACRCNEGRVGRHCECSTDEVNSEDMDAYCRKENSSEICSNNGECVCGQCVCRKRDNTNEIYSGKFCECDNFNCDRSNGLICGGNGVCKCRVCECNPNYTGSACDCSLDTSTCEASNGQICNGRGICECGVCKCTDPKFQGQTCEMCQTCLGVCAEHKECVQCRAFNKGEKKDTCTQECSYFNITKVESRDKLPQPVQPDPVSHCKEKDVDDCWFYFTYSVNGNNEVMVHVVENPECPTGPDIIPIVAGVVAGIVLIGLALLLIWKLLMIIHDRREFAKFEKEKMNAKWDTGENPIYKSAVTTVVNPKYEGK

Broadly, the Kd is the equilibrium constant for the complex coming apart. The substance “His-tagged talin2(1-449) WT (from UniProt Q9Y4G6 1-449) (domain or fragment)” gave a Kd of 350 nM.
As to “His-tagged talin1(1-446) WT (from UniProt Q9Y490 1-446) (domain or fragment)”, the dissociation constant (Kd) stood at 880 nM.
